Data: article PMC7834972

Target: SARS-CoV-2 S-I53-50A.1NT1 fusion protein (SARS-CoV-2)
Test: SEC; Superose 6 increase 10/300 GL in TBS with 5% glycerol; fractions between 12-14 mL pooled; blue native gel of the pooled fractions

Substance “SARS-CoV-2 S-I53-50A.1NT1 fusion protein” has a stoichiometry N of 3.
